Results taken from US6468532 (dated 2002).

Biological target: recombinant human IL-8, (ser-IL-8)72 (human, UniProt P10145 28-99)
Test: competition radioimmunoassay (unlabeled IL-8/125I-IL-8)

IC50: 0.059 nM
B1: full length 6G4V11N35A IgG1 (antibody, V domains shown)
VH: EVQLVQSGGGLVQPGGSLRLSCAASGYSFSSHYMHWVRQAPGKGLEWVGYIDPSNGETTYNQKFKGRFTLSRDNSKNTAYLQMNSLRAEDTAVYYCARGDYRYNGDWFFDVWGQGTLVTVSS
VL: DIQMTQSPSSLSASVGDRVTITCRSSQSLVHGIGATYLHWYQQKPGKAPKLLIYKVSNRFSGVPSRFSGSGSGTDFTLTISSLQPEDFATYYCSQSTHVPLTFGQGTKVEIKR
